This note sets out measurements from patent US20030181372A1.

The target of this test is human paraoxonase (PON1A) (human) (UniProt P27169). Nature of the test: cell-based or functional assay.
Sequence of UniProt P27169 (P27169 2-355 limits assumed): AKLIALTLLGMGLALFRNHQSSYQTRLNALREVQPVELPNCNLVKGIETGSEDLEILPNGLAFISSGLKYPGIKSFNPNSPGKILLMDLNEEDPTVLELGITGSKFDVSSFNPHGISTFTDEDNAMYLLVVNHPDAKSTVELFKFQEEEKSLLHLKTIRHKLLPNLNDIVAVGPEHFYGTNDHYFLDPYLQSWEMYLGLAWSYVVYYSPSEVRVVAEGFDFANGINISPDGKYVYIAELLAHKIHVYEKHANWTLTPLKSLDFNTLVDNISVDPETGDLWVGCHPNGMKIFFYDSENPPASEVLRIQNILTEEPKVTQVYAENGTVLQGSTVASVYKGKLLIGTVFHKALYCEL

recombinant human ApoA-I K96C yielded an arylesterase activity, CHO-PON cells cultured 24 h with 10 µg/mL ApoA-I (U/mg cell protein) of 0.067 and a reduction in arylesterase activity compared to ApoA-IWT of 30%.

recombinant human ApoA-I R10C came in with an arylesterase activity, CHO-PON cells cultured 24 h with 10 µg/mL ApoA-I (U/mg cell protein) of 0.126 and an increase in arylesterase activity compared to ApoA-IWT of 30%.

recombinant human ApoA-I R27C displayed an arylesterase activity, CHO-PON cells cultured 24 h with 10 µg/mL ApoA-I (U/mg cell protein) of 0.125 and an increase in arylesterase activity compared to ApoA-IWT of 30%.

As for recombinant human ApoA-I R61C, the arylesterase activity, CHO-PON cells cultured 24 h with 10 µg/mL ApoA-I (U/mg cell protein) came out at 0.121 and the increase in arylesterase activity compared to ApoA-IWT came out at 30%.

“recombinant human ApoA-I R151C (ApoA-IParis)” gave a secreted PON arylesterase activity, CHO-PON cells cultured 24 h with 10 µg/mL ApoA-I (U/mg cell protein) of 0.086.

“recombinant human ApoA-I R173C (ApoA-IMilano)” had a secreted PON arylesterase activity, CHO-PON cells cultured 24 h with 10 µg/mL ApoA-I (U/mg cell protein) of 0.076.

For the substance “recombinant human ApoA-I wild type (His-6 tagged)”, the ApoA-I concentration at which secreted PON activity is maximal (CHO-PON cell medium) is 12 µg/mL; the PON activity of baseline conditioned medium incubated 3 h at 37° C. with 10 µg/mL lipid-free ApoA-I postculture (relative to baseline) worked out at 94.4%; the PON activity of cells grown with 10 µg/mL ApoA-I over cells grown without ApoA-I amounted to 203%; the arylesterase activity in medium at 24 h, CHO-PON cells in the presence of 10 µg/mL ApoA-I (unit/mg of cell protein) was found to be 0.087. This substance came in with an arylesterase activity, CHO-PON cells cultured 24 h with 10 µg/mL ApoA-I (U/mg cell protein) of 0.095 and an increase in arylesterase activity on culturing CHO-PON cells with ApoA-I of 2.1 fold.
